B1: bdSENP1^MutJ (protein)
chain: PFVPLTDEDEDNVRHALGGRKESETLSVHEASSIVITREILQCLNDKEWLNDEVINLYLELLKERELREPNKFLKCHFFNTFFYKKLINGGYDYKSVRSWTTTRKLGYNLIDCDKIFVPIHKDVHWCLAVINIKEKKFQYLDSLGYMDMKALRILAKYLVDEVKDKSGKQIDVHAWKQEGVQNLPLQENGWDCGMFMLKYIDFYSRDMELVFGQKHMSYFRRRTAKEILDLKAG
B2: bdSENP1 from B. distachyon (protein)
chain: B1 chain with E22R, S33N, S99R, T103K
B3: bdSENP1^Muti (protein)
chain: B1 chain with E22K, S33H, S99E, T103R
B4: bdSENP1^MutK (protein)
chain: B1 chain with E22V, S33Q, S99V, T103G
B5: Ulp1 from S. cerevisiae (protein)
chain: LVPELNEKDDDQVQKALASRENTQLMNRDNIEITVRDFKTLAPRRWLNDTIIEFFMKYIEKSTPNTVAFNSFFYTNLSERGYQGVRRWMKRKKTQIDKLDKIFTPINLNQSHWALGIIDLKKKTIGYVDSLSNGPNAMSFAILTDLQKYVMEESKHTIGEDFDLIHLDCPQQPNGYDCGIYVCMNTLYGSADAPLDFDYKDAIRMRRFIAHLILTDALK
B6: bdSENP1^MutG (protein)
chain: PFVPLTDEDEDNVRHALGGRKSSETLSVHEASHIVITREILQCLNDKEWLNDEVINLYLELLKERELREPNKFLKCHFFNTFFYKKLINGGYDYKSVRRWTTVKLGYNLIDCDKIFVPIHKDVHWCLAVINIKEKKFQYLDSLGYMDMKALRILAKYLVDEVKDKSGKQIDVHAWKQEGVQNLPLQENGWDCGMFMLKYIDFYSRDMELVFGQKHMSYFRRRTAKEILDLKAG
B7: bdSENP1^MutH (protein)
chain: PFVPLTDEDEDNVRHALGGRKPSETLSVHEASAIVITREILQCLNDKEWLNDEVINLYLELLKERELREPNKFLKCHFFNTFFYKKLINGYDYKSVREWTTMRKLGYNLIDCDKIFVPIHKDVHWCLAVINIKEKKFQYLDSLGYMDMKALRILAKYLVDEVKDKSGKQIDVHAWKQEGVQNLPLQENGWDCGMFMLKYIDFYSRDMELVFGQKHMSYFRRRTAKEILDLKAG

From US20210261937 come the findings set out here.

Numbering of substitutions follows the chain as printed. Some results are limits rather than exact numbers.

The target of the first data set is bdSUMO Mut10-MBP fusion protein.
In turn, B1 yielded a cleavage of the SUMO fusion protein of 100 % cleavage.

B2 displayed a cleavage of the SUMO fusion protein of less than 25 % cleavage.

As to B3, the cleavage of the SUMO fusion protein was less than 50 % cleavage.

As to B4, the cleavage of the SUMO fusion protein was determined as 100 % cleavage.

Regarding B5, the “cleavage of the SUMO fusion protein” value is listed as “resistant”.

Protein B6 yielded a cleavage of the SUMO fusion protein of 100 % cleavage.

For B7, the cleavage of the SUMO fusion protein was 100 % cleavage.

The target of a further data set is hsSUMO2-MBP fusion protein.
As to B1, the cleavage of the SUMO fusion protein was less than 50 % cleavage.

As for B2, the cleavage of the SUMO fusion protein is less than 50 % cleavage.

For the protein B3, the “cleavage of the SUMO fusion protein” value is given as “resistant”.

Regarding B4, the “cleavage of the SUMO fusion protein” value is listed as “resistant”.

B5: the cleavage of the SUMO fusion protein is less than 25 % cleavage.

The protein B6 yielded a cleavage of the SUMO fusion protein of 100 % cleavage.

As for B7, the “cleavage of the SUMO fusion protein” value is “resistant”.

The target of the next data set is bdSUMO Mut8-MBP fusion protein.
As for B1, the cleavage of the SUMO fusion protein was less than 50 % cleavage.

B2: the cleavage of the SUMO fusion protein was less than 25 % cleavage.

In turn, B3 had a cleavage of the SUMO fusion protein of less than 25 % cleavage.

Protein B4 had a cleavage of the SUMO fusion protein of less than 75 % cleavage.

Consider B5, for which the “cleavage of the SUMO fusion protein” value is “resistant”.

In turn, B6 gave a cleavage of the SUMO fusion protein of less than 25 % cleavage.

Protein B7 showed a cleavage of the SUMO fusion protein of less than 75 % cleavage.

A further data set addresses hsSUMO2-MBP fusion protein with the bdSUMO^Mut11 exchanges.
B2: the “cleavage of SUMO-MBP fusion, 1 h at 25 °C (FIG. 14)” value (“cleavage of SUMO-MBP fusion, 1 h” below) was “allowed cleavage resistance against Ulp1, SUMOstar protease, hsSENP2 and bdSENP1”.

In the case of B5, the “cleavage of SUMO-MBP fusion, 1 h” value was “allowed cleavage resistance against Ulp1, SUMOstar protease, hsSENP2 and bdSENP1”.

The next data set deals with bdSUMO Mut11-MBP fusion protein.
Take B1: the cleavage of the SUMO fusion protein amounted to 100 % cleavage.

For the protein B2, the cleavage of the SUMO fusion protein was less than 25 % cleavage.

Take B3: the cleavage of the SUMO fusion protein was less than 50 % cleavage.

As to B4, the cleavage of the SUMO fusion protein came out at 100 % cleavage.

In the case of B5, the “cleavage of the SUMO fusion protein” value was “resistant”.

The protein B6 displayed a cleavage of the SUMO fusion protein of less than 75 % cleavage.

In turn, B7 returned a cleavage of the SUMO fusion protein of 100 % cleavage.

The target in a further data set is scSUMO-MBP fusion protein with the bdSUMO^Mut11 exchanges.
Take B2: the “cleavage of SUMO-MBP fusion, 1 h” value is “allowed cleavage resistance against Ulp1, SUMOstar protease, hsSENP2 and bdSENP1”.

On to B5, for which the “cleavage of SUMO-MBP fusion, 1 h” value is “allowed cleavage resistance against Ulp1, SUMOstar protease, hsSENP2 and bdSENP1”.

In a further data set the target is bdSUMO Mut14-MBP fusion protein.
The protein B1 returned a cleavage of the SUMO fusion protein of less than 50 % cleavage.

Consider B2, for which the cleavage of the SUMO fusion protein was less than 25 % cleavage.

Consider B3, for which the cleavage of the SUMO fusion protein is less than 50 % cleavage.

B4 yielded a cleavage of the SUMO fusion protein of 100 % cleavage.

On to B5, for which the “cleavage of the SUMO fusion protein” value was “resistant”.

The protein B6 returned a cleavage of the SUMO fusion protein of less than 50 % cleavage.

Consider B7, for which the cleavage of the SUMO fusion protein was found to be 100 % cleavage.

For a further data set, the target named is bdSUMO-MBP fusion protein.
Protein B1 came in with a cleavage of the SUMO fusion protein of less than 50 % cleavage.

Consider B2, for which the cleavage of the SUMO fusion protein was determined as 100 % cleavage and the “protease concentration required to efficiently cleave 100 µM cognate substrate, 1 h at 0 °C” value is on record as “Around 15-50 nM of these two proteases were required to efficiently cleave the cognate substrate”.

In turn, B3 showed a cleavage of the SUMO fusion protein of less than 25 % cleavage.

With B4, the cleavage of the SUMO fusion protein was less than 50 % cleavage.

B5 returned a cleavage of the SUMO fusion protein of 100 % cleavage.

In turn, B6 had a cleavage of the SUMO fusion protein of less than 50 % cleavage.

As to B7, the cleavage of the SUMO fusion protein was less than 25 % cleavage.

The target in the next data set is bdSUMO D67K-MBP fusion protein.
B1: the cleavage of the SUMO fusion protein is 100 % cleavage.

Regarding B2, the cleavage of the SUMO fusion protein is less than 25 % cleavage.

As for B3, the cleavage of the SUMO fusion protein is less than 25 % cleavage.

For the protein B4, the cleavage of the SUMO fusion protein was found to be 100 % cleavage.

B5: the “cleavage of the SUMO fusion protein” value is recorded as “resistant”.

In the case of B6, the cleavage of the SUMO fusion protein is less than 75 % cleavage.

Consider B7, for which the cleavage of the SUMO fusion protein is less than 75 % cleavage.

The target of another data set is scSUMO-MBP fusion protein.
With B1, the cleavage of the SUMO fusion protein was less than 25 % cleavage.

In turn, B2 registered a cleavage of the SUMO fusion protein of less than 50 % cleavage.

Regarding B3, the “cleavage of the SUMO fusion protein” value is on record as “resistant”.

With B4, the “cleavage of the SUMO fusion protein” value was “resistant”.

In the case of B5, the cleavage of the SUMO fusion protein was determined as 100 % cleavage and the “protease concentration required to efficiently cleave 100 µM cognate substrate, 1 h at 0 °C” value is given as “Around 15-50 nM of these two proteases were required to efficiently cleave the cognate substrate”.

B6 yielded a cleavage of the SUMO fusion protein of less than 25 % cleavage.

Consider B7, for which the “cleavage of the SUMO fusion protein” value was “resistant”.

For another data set, the target named is scSUMO-MBP fusion protein with the bdSUMO^Mut1 exchanges.
B2: the “cleavage of SUMO-MBP fusion, 1 h” value was “allowed cleavage resistance against Ulp1, SUMOstar protease, hsSENP2 and bdSENP1”.

Regarding B5, the “cleavage of SUMO-MBP fusion, 1 h” value was “allowed cleavage resistance against Ulp1, SUMOstar protease, hsSENP2 and bdSENP1”.

A further data set concerns the target bdSUMO Mut12-MBP fusion protein.
For the protein B1, the cleavage of the SUMO fusion protein was less than 50 % cleavage.

B2: the cleavage of the SUMO fusion protein is less than 25 % cleavage.

Consider B3, for which the cleavage of the SUMO fusion protein was less than 50 % cleavage.

The protein B4 returned a cleavage of the SUMO fusion protein of 100 % cleavage.

With B5, the “cleavage of the SUMO fusion protein” value is “resistant”.

On to B6, for which the cleavage of the SUMO fusion protein was less than 50 % cleavage.

For the protein B7, the cleavage of the SUMO fusion protein stood at 100 % cleavage.

In a further data set the target is bdSUMO Mut15-MBP fusion protein.
B1 had a cleavage of the SUMO fusion protein of 100 % cleavage.

Regarding B2, the cleavage of the SUMO fusion protein is less than 25 % cleavage.

Protein B3 displayed a cleavage of the SUMO fusion protein of less than 50 % cleavage.

In turn, B4 displayed a cleavage of the SUMO fusion protein of 100 % cleavage.

For B5, the “cleavage of the SUMO fusion protein” value is recorded as “resistant”.

Protein B6 showed a cleavage of the SUMO fusion protein of less than 75 % cleavage.

For B7, the cleavage of the SUMO fusion protein stood at 100 % cleavage.

The target in the next data set is hsSUMO2-MBP fusion protein with the bdSUMO^Mut1 exchanges.
Regarding B2, the “cleavage of SUMO-MBP fusion, 1 h” value is “allowed cleavage resistance against Ulp1, SUMOstar protease, hsSENP2 and bdSENP1”.

For the protein B5, the “cleavage of SUMO-MBP fusion, 1 h” value was “allowed cleavage resistance against Ulp1, SUMOstar protease, hsSENP2 and bdSENP1”.

The target of another data set is bdSUMO^Mut1-MBP fusion protein.
Consider B1, for which the cleavage of the SUMO fusion protein came to 100 % cleavage.

In turn, B2 returned a cleavage of the SUMO fusion protein of less than 25 % cleavage.

On to B3, for which the cleavage of the SUMO fusion protein amounted to 100 % cleavage.

On to B4, for which the cleavage of the SUMO fusion protein amounted to 100 % cleavage.

For the protein B5, the “cleavage of the SUMO fusion protein” value was “resistant”.

Take B6: the cleavage of the SUMO fusion protein was found to be 100 % cleavage.

With B7, the cleavage of the SUMO fusion protein was determined as 100 % cleavage.

The target of another data set is bdSUMO Mut13-MBP fusion protein.
Turning to B1, the cleavage of the SUMO fusion protein was determined as 100 % cleavage.

For B2, the cleavage of the SUMO fusion protein is less than 50 % cleavage.

Consider B3, for which the cleavage of the SUMO fusion protein was less than 75 % cleavage.

The protein B4 returned a cleavage of the SUMO fusion protein of 100 % cleavage.

Turning to B5, the “cleavage of the SUMO fusion protein” value is on record as “resistant”.

On to B6, for which the cleavage of the SUMO fusion protein is less than 75 % cleavage.

On to B7, for which the cleavage of the SUMO fusion protein was 100 % cleavage.
